Measurements taken from US20240182536A1 (MURAL ONCOLOGY, published 2024).
Substitutions are numbered along the chain they refer to. Names may count otherwise.

T1: IL-18 binding protein (IL-18BP) (UniProt O95998 31-194)
T1 sequence (looked up): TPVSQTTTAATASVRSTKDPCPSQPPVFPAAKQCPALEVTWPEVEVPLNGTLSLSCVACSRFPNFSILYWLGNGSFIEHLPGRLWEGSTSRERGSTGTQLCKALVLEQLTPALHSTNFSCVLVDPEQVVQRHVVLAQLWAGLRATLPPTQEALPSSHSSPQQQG

T2: IL-18 receptors on HEK-Blue IL-18 reporter cells (UniProt Q13478 19-541; O95256 20-599, limits assumed)
T2 sequence (looked up) 1: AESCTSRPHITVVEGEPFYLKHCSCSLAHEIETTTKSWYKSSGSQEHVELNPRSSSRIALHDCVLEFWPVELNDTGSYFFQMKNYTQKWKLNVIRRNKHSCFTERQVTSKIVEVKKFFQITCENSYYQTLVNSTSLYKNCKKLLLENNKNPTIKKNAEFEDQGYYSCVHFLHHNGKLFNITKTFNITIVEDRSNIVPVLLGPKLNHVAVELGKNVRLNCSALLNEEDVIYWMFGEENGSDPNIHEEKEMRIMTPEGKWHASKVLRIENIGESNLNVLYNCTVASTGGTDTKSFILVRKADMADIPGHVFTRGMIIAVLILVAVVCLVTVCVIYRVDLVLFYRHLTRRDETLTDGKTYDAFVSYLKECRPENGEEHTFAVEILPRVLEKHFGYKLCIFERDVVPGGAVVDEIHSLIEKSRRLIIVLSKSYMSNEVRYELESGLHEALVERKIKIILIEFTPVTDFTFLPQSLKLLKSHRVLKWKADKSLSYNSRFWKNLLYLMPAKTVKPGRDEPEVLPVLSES
T2 sequence (looked up) 2: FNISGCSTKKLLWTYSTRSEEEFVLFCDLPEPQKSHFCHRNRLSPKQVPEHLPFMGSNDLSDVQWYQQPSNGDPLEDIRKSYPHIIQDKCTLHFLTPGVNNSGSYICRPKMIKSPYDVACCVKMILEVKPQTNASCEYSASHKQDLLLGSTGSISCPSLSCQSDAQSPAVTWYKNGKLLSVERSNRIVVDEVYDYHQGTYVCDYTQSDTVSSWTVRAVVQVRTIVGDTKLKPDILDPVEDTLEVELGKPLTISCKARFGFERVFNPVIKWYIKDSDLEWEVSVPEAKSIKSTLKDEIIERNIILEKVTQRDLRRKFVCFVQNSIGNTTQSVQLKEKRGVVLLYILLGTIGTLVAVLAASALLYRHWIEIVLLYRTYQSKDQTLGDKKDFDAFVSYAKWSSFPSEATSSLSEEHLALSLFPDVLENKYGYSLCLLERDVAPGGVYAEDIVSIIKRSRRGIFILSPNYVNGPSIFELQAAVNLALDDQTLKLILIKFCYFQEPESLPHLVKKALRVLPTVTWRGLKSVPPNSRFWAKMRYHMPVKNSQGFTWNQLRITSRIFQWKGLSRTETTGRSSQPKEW

B1: IL-18 variant G3P, E6K, D54R, S55P, T63A, N91V (ligand)
chain: YFPKLKSKLSVIRNLNDQVLFIDQGNRPLFEDMTDSDMRDNAPRTIFIISMYKRPQPRGMAVAISVKSEKISTLSSENKIISFKEMNPPDVIKDTKSDIIFFQRSVPGHDNKMQFESSSYEGYFLASEKERDLFKLILKKEDELGDRSIMFTVQNED
B2: IL-18 variant G3S, E6Q, K53S, D54Y, S55H, N91L, R104Q (ligand)
chain: B1 chain with P3S, K6Q, K53S, R54Y, P55H, A63T, V91L, R104Q
B3: IL-18 variant G3R, L5W, E6H, D54Y, Q56H, N91R (ligand)
chain: B1 chain with P3R, L5W, K6H, R54Y, P55S, Q56H, A63T, V91R
B4: IL-18 variant G3Q, E6S, S55V, T63A, N91T (ligand)
chain: B1 chain with P3Q, K6S, R54D, P55V, V91T
B5: IL-18 variant G3P, E6K, K53M, D54W, S55N, T63S, N91I (ligand)
chain: B1 chain with K53M, R54W, P55N, A63S, V91I
B6: IL-18 variant G3T, E6Q, K53G, D54G, S55H, T63A, S65T, N91R, R104Q (ligand)
chain: B1 chain with P3T, K6Q, K53G, R54G, P55H, S65T, V91R, R104Q
B7: IL-18 variant G3N, E6S, K53Q, D54W, S55R, N91T, R104T (ligand)
chain: B1 chain with P3N, K6S, K53Q, R54W, P55R, A63T, V91T, R104T
B8: IL-18 variant G3P, E6V, K53A, D54W, S55P, T63S, N91L, R104K, Q154R (ligand)
chain: B1 chain with K6V, K53A, R54W, A63S, V91L, R104K, Q154R
B9: IL-18 variant G3Q, E6N (ligand)
chain: B1 chain with P3Q, K6N, R54D, P55S, A63T, V91N
B10: IL-18 variant G3P, E6G, D54T, S55W, N91E, R104K (ligand)
chain: B1 chain with K6G, R54T, P55W, A63T, V91E, R104K
B11: IL-18 variant G3P, E6R, D54W, S55Q, T63S, N91T, R104H (ligand)
chain: B1 chain with K6R, R54W, P55Q, A63S, V91T, R104H
B12: IL-18 variant G3P, E6V, K53A, D54W, S55P, T63S, N91L, R104K (ligand)
chain: B1 chain with K6V, K53A, R54W, A63S, V91L, R104K
B13: IL-18 variant G3Y, E6S, K53S, D54W, S55L, T63S, N91I (ligand)
chain: B1 chain with P3Y, K6S, K53S, R54W, P55L, A63S, V91I
B14: IL-18 variant G3Y, E6S, K53S, D54W, S55L, N91I (ligand)
chain: B1 chain with P3Y, K6S, K53S, R54W, P55L, A63T, V91I

Columns and labels:
[1] = target: T1, IL-18 binding protein (IL-18BP); experiment: cell-based or functional assay
[2] = target: T2, IL-18 receptors on HEK-Blue IL-18 …; experiment: cell-based or functional assay

Binder | Activity, +100 nM BP, DF-1000002 [1] | Activity, +100 nM BP, DF-5000003 [1] | Activity, +100 nM BP, DF-25000004 [1] | Ratio (-BP/+BP), DF-1000005 [1] | Ratio (-BP/+BP), DF-5000006 [1] | Ratio (-BP/+BP), DF-25000007 [1] | Activity, No BP, DF-100000 [2] | Activity, No BP, DF-500000 [2] | Activity, No BP, DF-2500000 [2]
B1 | 1.34 | 0.73 | 0.28 | 0.98 | 0.92 | 0.79 | 1.31 | 0.67 | 0.22
B2 | 0.51 | 0.2 | 0.1 | 0.95 | 0.81 | 0.88 | 0.49 | 0.16 | 0.08
B3 | 0.32 | 0.11 | 0.08 | 1.25 | 1.09 | 1.01 | 0.39 | 0.12 | 0.08
B4 | 1.15 | 0.46 | 0.15 | 1.68 | 4.03 | 10.7 | 1.94 | 1.84 | 1.61
B5 | 0.65 | 0.2 | 0.09 | 0.98 | 1.07 | 0.91 | 0.64 | 0.21 | 0.08
B6 | 0.49 | 0.18 | 0.11 | 1.19 | 1.03 | 1.14 | 0.58 | 0.18 | 0.12
B7 | 0.46 | 0.15 | 0.14 | 0.99 | 0.93 | 1.02 | 0.46 | 0.14 | 0.14
B8 | 0.6 | 0.19 | 0.09 | 0.94 | 0.96 | 0.91 | 0.56 | 0.18 | 0.08
B9 | 1.88 | 1.52 | 0.84 | 1.04 | 1.27 | 2.2 | 1.95 | 1.93 | 1.85
B10 | 0.33 | 0.12 | 0.08 | 1.09 | 1.06 | 0.97 | 0.35 | 0.13 | 0.07
B11 | 0.89 | 0.26 | 0.12 | 0.83 | 0.96 | 0.78 | 0.74 | 0.25 | 0.09
B12 | 1.21 | 0.57 | 0.18 | 0.98 | 0.9 | 1.04 | 1.18 | 0.52 | 0.19
B13 | 0.62 | 0.23 | 0.12 | 1.09 | 0.99 | 0.84 | 0.68 | 0.23 | 0.1
B14 | 0.78 | 0.26 | 0.12 | 0.9 | 0.95 | 1.22 | 0.7 | 0.24 | 0.15
